Assay results as given in PMC10992996, “Human CRB1 and CRB2 form homo- and heteromeric protein complexes in the retina” (Life Science Alliance, 2024).

Molecular target: T1, CRB1-FLAG p.N1317H (human, UniProt P82279 26-1406, p.N1317H)
T1 construct: Crumbs homolog 1, canonical form, human, cDNA NM_202153 as printed, with a patient missense mutation; Made by site-directed mutagenesis of m1; also called CRB1 p.N1317H; p.C1317H; source: HEK293T, transfected, in lysate; not shown: Strep-Strep-FLAG, N-terminal, kept
T1 sequence (looked up): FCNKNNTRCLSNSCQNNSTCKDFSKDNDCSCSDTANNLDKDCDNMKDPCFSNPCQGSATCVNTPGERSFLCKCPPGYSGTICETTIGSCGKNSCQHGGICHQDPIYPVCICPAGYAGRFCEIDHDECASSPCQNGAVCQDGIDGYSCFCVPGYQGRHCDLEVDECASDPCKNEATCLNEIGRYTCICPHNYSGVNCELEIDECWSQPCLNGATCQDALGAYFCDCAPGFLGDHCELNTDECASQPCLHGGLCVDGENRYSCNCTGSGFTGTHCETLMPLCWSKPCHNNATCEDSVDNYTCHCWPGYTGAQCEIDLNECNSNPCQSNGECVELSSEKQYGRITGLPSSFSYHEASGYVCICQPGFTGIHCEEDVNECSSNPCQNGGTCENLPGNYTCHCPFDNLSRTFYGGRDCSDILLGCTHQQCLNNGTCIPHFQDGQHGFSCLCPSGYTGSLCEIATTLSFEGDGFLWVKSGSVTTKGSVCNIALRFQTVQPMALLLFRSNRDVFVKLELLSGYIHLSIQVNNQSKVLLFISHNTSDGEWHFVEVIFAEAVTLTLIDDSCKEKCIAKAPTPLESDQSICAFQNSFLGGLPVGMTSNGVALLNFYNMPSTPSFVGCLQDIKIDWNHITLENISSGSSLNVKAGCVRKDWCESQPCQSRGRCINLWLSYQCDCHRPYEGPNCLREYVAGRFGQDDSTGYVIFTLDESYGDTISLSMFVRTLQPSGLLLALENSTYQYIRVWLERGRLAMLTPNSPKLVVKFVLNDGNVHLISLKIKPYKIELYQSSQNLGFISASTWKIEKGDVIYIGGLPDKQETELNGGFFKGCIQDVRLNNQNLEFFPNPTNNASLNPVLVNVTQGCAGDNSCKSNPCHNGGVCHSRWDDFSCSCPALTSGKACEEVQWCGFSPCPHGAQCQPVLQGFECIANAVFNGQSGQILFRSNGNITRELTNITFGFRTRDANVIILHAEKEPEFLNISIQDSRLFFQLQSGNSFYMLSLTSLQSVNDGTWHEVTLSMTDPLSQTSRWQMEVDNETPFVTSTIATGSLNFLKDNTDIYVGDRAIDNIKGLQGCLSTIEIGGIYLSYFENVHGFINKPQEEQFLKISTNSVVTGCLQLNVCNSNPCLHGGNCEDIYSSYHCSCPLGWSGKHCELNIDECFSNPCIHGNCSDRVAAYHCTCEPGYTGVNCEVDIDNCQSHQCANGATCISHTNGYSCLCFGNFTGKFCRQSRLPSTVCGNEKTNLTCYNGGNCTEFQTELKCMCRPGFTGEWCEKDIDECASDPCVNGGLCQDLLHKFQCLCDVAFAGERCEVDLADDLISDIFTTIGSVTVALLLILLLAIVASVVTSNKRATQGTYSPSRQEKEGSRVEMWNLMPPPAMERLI
Assay: co-IP; HEK293T cells co-transfected pairwise with a FLAG and an HA construct, 48 h; lysis in TBS (30 mM Tris-HCl pH 7.4, 150 mM NaCl) with 0.5% Nonidet P40; FLAG-IP on ANTI-FLAG M2 Affinity Gel 60-90 min at 4°C, elution with FLAG peptide; Western blot with HA and FLAG antibodies; for mutants HA/FLAG signal in eluates relative to WT, three biological replicates
Conditions: partners not purified

B1: Human canonical CRB2 (Crumbs homolog 2) (natural protein)
chain: not shown
notes: Crumbs homolog 2, human, cDNA NM_173689; Stood as bait (FLAG copy) and as prey (HA copy) in the pairwise co-IP matrix; each copy carries only one of the two tags; The FLAG copy was the bait of the mass spectrometry pull-downs; also called CRB2-FLAG; CRB2-HA; source: HEK293T, transfected, in lysate (co-IP); HEK293T, transfected, FLAG-IP on beads, washed and purified with 0.01% SDS (retina …)
With B1 the “percent reduction of the interaction relative to CRB1 WT” value was 24%.
